# Laboratory results from the supplement of paper PMC12042874.
# ± gives the uncertainty stated by the source.
# Test: amyloid nucleation score (Sup35N fusion, yeast selection) (log enrichment); library NNK1; higher = more nucleation; inactive = no reads after selection
# Outline: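 Psi-negative yeast expressed Sup35N fused to peptides of 20 random codons. They were induced 24 hours with 100 μM copper sulfate, grown 7 days at 30°C without adenine and uracil, and their plasmid inserts from input and output were Illumina-sequenced. The nucleation score is the DiMSum log enrichment of output over input reads, centred on the mode score of non-aggregating sequences. Sequences with under 100 input reads were excluded.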
row,Substance,amyloid nucleation score
1,FSRYLPKLNSLAKDSIPVGR,inactive
2,MFYLTFYNLRIND,6.01 ± 0.061
3,KCREIALHYPAYIPFVLIAY,-0.031 ± 0.82
4,RSWPHGCVAEQNTCSPHKLA,1.48 ± 0.55
5,LECYEVYRYRKCLCCIVCVC,0.633 ± 0.42
6,MLQCYLLFARYLLRNLSWGW,0.59 ± 0.62
7,CWKLETYTSTDSQVGQANLK,-1.28 ± 0.96
8,LLGRLVQCCRPWY,-1.17 ± 2.7
9,FDVFMRYG,inactive
10,AMGSDDE,-0.338 ± 1.3
11,WLVVHSQLFSSCNCLKNTVP,0.968 ± 0.35
12,GRRLIKSTQCGVNKVDSAIW,-0.184 ± 0.27
13,ALMNNGWYILSNFPYCMVIY,5.4 ± 0.064
14,HTHSGVYC,-0.468 ± 0.5
15,FDGGKVSILFAFISNP,6.252 ± 0.048
16,TDLNLVMKKGSYVGCSSSCV,-0.605 ± 0.24
17,TVMTRRSLWRTVGLNWVMLV,1.53 ± 0.19
18,KFVHNYSLKYIKGVVSCQFL,0.727 ± 0.37
19,DGLKWVDWPWGHYGEMMVEM,1.01 ± 0.55
20,STFAAFSNTVYASCQYLLNG,-1.14 ± 0.93
21,IRNSEKLNRGCGCGVMHVSV,0.239 ± 0.49
22,ANALDCINDWDKSSQSCQGP,0.812 ± 0.53
23,ENYKVGACVYLPWPFHENTG,-0.096 ± 0.56
24,SNCVIVSQLKITDA,-0.184 ± 0.44
25,LHAGRDSAASGPRISIWKPM,0.077 ± 0.38
26,RWCMCVENRGMLVWGWNGFV,-0.245 ± 0.53

row,Substance,amyloid nucleation score
1,RCGSPSAHNSIYMR,1.34 ± 0.32
2,IWLCVYNGM,4.98 ± 0.12
3,IWNIVWNNLVYVNFSNLGGV,3.73 ± 0.08
4,NEGEVIAELIIFVNPWVTI,-0.599 ± 0.43
5,LGFQLFNQGWAQNSTPRFSY,-1.29 ± 1.9
6,LGFAA,-0.339 ± 1.3
7,IRLNSFTIESKRMYGRDSDV,3.38 ± 0.12
8,FFAFYDVHPLHLGDTTLGGW,3.29 ± 0.14
9,SPFLSAFLSFLTSFYLIFMG,-0.164 ± 0.61
10,YKMCFSKVYESTEPMMCTGV,-0.904 ± 0.8
11,PQGSVGLEFKNYCVRAACGF,0.078 ± 0.93
12,CCDSPSRRSRAKECRMKYSM,-1.32 ± 1.2
13,RNWDMGHKQP,2.66 ± 0.12
14,RPLRCWAIHYGQVYDSSAIL,0.987 ± 0.62
15,WIWVYQTNKIKEMFMRRVWL,inactive
16,YLCFKYVLGCNRWSVAVVNF,inactive
17,WDKADVFLDDVSASRSSLKM,3.31 ± 0.088
18,VIGLSQWVNSLSYRFEMQNL,4.72 ± 0.094
19,PGRYSISGSEHMPVYLYTFH,inactive
20,FESKYNTP,0.41 ± 0.47
21,RQLFIGGAPDLC,0.216 ± 0.59
22,LYICPHYDYWLCEQYMHWSP,0.69 ± 0.35
23,KCSFNLTLIVF,1.77 ± 0.15
24,TRNVSVTAVMED,0.938 ± 0.81
25,FRLEGRCSLLFCTCRLDV,0.561 ± 0.45
26,VPTVCYFSNQVR,-0.434 ± 0.33

row,Substance,amyloid nucleation score
1,FWKGASINYS,inactive
2,VLRWLRKRSFSI,-0.076 ± 0.6
3,CIYSICYFCNS,7.924 ± 0.043
4,AIKCHL,-0.721 ± 1.9
5,CPVGQTNCQDL,0.072 ± 0.51
6,PGARSLLGSYYV,0.058 ± 0.84
7,GLVTRMSQTHPVSYNHITIL,-0.072 ± 0.28
8,AEWVYITMGYAWLKRSNVVE,0.092 ± 0.33
9,LGSRFMRV,0.635 ± 1.2
10,MYVSDCCSCICMVVDTRSIF,0.292 ± 0.39
11,NWRQEYVFAY,-1.37 ± 2.4
12,ALFCDDEYRRDYW,0.192 ± 0.31
13,LGIFSNIYGFV,0.277 ± 0.45
14,KKSGRYESVSQGWYDRLLQF,-0.667 ± 0.31
15,SGGLNFLGLPVVFF,0.173 ± 0.92
16,LLFTNEKHNSLVNQGTPEWC,0.13 ± 0.9
17,GSCFTVWMIGPGRRTLLQVL,-0.079 ± 0.54
18,TGKAVTSGWKNIVSSITSQR,-0.434 ± 0.58
19,WWATWRLLCIDNTACWADRW,-0.177 ± 0.53
20,LGRRIPCNLEWHHLDGALTR,0.013 ± 0.36
21,HTEEGKSWFMRGSSVWFRVG,0.341 ± 0.18
22,LTDLLMFIVPWDNAQRLVCF,0.518 ± 0.89
23,EYVRRKFQPSCTVMRYCFAR,0.006 ± 0.77
24,VVSSAEQVHLGVVNGRRFLL,-0.003 ± 0.74
25,VEYSVTCFLNYY,5.71 ± 0.059
26,WYWELGLALKRWRYAANFGS,-0.19 ± 0.96

row,Substance,amyloid nucleation score
1,VVWEQSIDVILGYMGLGPD,0.381 ± 0.49
2,TCHLIL,-0.872 ± 0.34
3,MTTRIFSLKIA,0.066 ± 0.81
4,CVYGGIFYRTGYLYFEVYFY,0.134 ± 0.31
5,DINSYVAYLVYEGLVNGSDE,0.252 ± 0.46
6,SQYDWLKLFSNVY,-0.175 ± 0.21
7,IQYDSFNVRFDIATAIDYFA,-0.12 ± 0.67
8,KSHIIFSIWQRLFGGHRISK,0.413 ± 0.58
9,SSVCGKL,-0.211 ± 0.7
10,VHRQMEMIIKIVWTRAYAFT,2.33 ± 0.6
11,WAMDKGWKVNHCNEAPMIHC,-0.053 ± 0.37
12,IYEKRGD,1.15 ± 0.98
13,KPLILVQNTKLPSRFCYPLT,-0.488 ± 0.74
14,TITHGYLRLRYCVR,-0.292 ± 0.44
15,ILSRVCVRGCIHLPSRMCRS,inactive
16,GFGPS,-0.275 ± 0.38
17,VVIESYC,0.593 ± 0.36
18,VFLACNMMYDTKVQTHGYRG,4.23 ± 0.07
19,FTESCRRGI,0.053 ± 0.4
20,SFSLSLVFRISPDGLGHFLQ,0.412 ± 0.3
21,YTHGG,inactive
22,YNFVSCLVYRK,6.9 ± 0.071
23,TLSKVICVSPTVGMGLSSER,0.616 ± 0.79
24,RLYFRSSYDCDETRWKEKYM,0.049 ± 0.38
25,PSGCFVWEML,inactive
26,LERYVSMRFSWWDSSKKNTW,4.18 ± 0.086

row,Substance,amyloid nucleation score
1,AWNRYIFIPTLEFTVLCMWC,6.139 ± 0.058
2,VKLGDNNTRQLTYSGS,1.71 ± 0.73
3,YVMAVI,1.64 ± 0.5
4,SPFMGCLYNLLDLDDGS,-0.65 ± 0.51
5,NIANSWYW,-0.537 ± 1.9
6,NISSNRCVNNVAPSDSSTYF,-0.091 ± 0.69
7,SLLGPIGIIQTWIPTHLDLF,inactive
8,ERSYSNWAMG,0.958 ± 0.74
9,MWVLRPCCHFAVCRGIKVSR,-0.046 ± 0.53
10,RYSWSYEKKWIDNLQLVLR,-0.609 ± 0.22
11,ILRSGNVCYHNTVRWVLSYR,0.225 ± 0.21
12,LQCQN,0.702 ± 0.4
13,TRCRWLQ,0.931 ± 0.93
14,YKFKGSFVSIRQGAEVGYSA,-0.361 ± 0.69
15,LYHSTLYLNVCYTYHSAGGN,1.24 ± 0.21
16,GNCSMSVGATLEGLMVRVHI,0.027 ± 0.68
17,RLGCGSM,0.769 ± 0.45
18,CMMSNRTCQAQLVMMWEMW,inactive
19,FAGFTGGVLYGVWRLLGSCR,-0.022 ± 0.59
20,VYGVPWYGLSYLFCTSVDID,6.252 ± 0.059
21,CPNIEKPSLLST,-2.01 ± 2.4
22,IVVGCGCPPRINCFV,-0.444 ± 0.7
23,IFSNQLYVERIVLDENKALL,3.62 ± 0.094
24,TRSLPFSIS,0.109 ± 1.4
